In assay [1] the target is HLA-A*02:01 molecule (product of HLA-A*02:01 gene) on T2 cells (human). In words: flow cytometry, T2 cells with added b2m, peptide dilution series, BB7.2 staining.
The target in assay [2] is HLA-A*02:06 molecule (product of HLA-A*02:06 gene) on RA2.6 cells (human). In words: flow cytometry, RA2.6 cells, peptide dilution series, BB7.2 staining. (In general: In flow cytometry, cells or beads pass a laser one at a time.)
Assay [3] addresses HLA-A*24:02 molecule (product of HLA-A*24:02 gene) on C1R-A24 cells (human). In words: flow cytometry, acid-stripped C1R-A24 cells with added b2m, peptide dilution series, 17A12 staining.

The values that follow come from patent US20190062389A1.

Consider SLTPQAFEF (modifications not checked) [GPC3-derived peptide … (SEQ ID NO: 5)], for which the Binding Experiment Data (log Kd) (log Kd (concentration unit not given)) was -4.93 in assay [1], -4.52 in assay [2] and -7.11 in assay [3].
